This note sets out measurements from a protein production outcome set (Wang et al. 2014).

The nature of the data set: label from the status in PepcDB records.
For the sequence “MGHHHHHHSHGLCYDLCRFGAVVAEDGYYVDEKKCEGCAFCFNVCPERAIEMENVKTGDLYVSKTEWGYFVHARLKPGEENTGRLVTEVKNRAKEIAEESNAEFLIVDSAPGVGCPVMASLTGVDAAIIVTEPTVSGLSDMLRILELCEHFRIRPFVVVNKFDLNVNIASEIESYCSENGVEFAGRVPFDKAIPEQIANLNFPFSGKAADKMVEIWKKLRE”, the protein production result is on record as “failed”.

In the case of “MLDGQSCPLCPSRSSLPAGTSFHQSPMDIVTRTFEAPRTYRPSASVLGRAVRAWTNDRLRGEALYLVAMTGLTILLLMAHYLGWALLTSALAASQGWEPLFWQTQVGSVLVLAGLGLVGFRPAVRVTCRPDAVTLRQGDQTRTLSPPDIQDVRLISAQRYHRHYRRYAATQVFASAVSEQVLCVRTGDGPVIVALPGPEARAALLEHLEALTASASEAAARP”, the protein production result is given as “failed”. Consider “DRSRLQCYSEDVTEYRKMEQGLNDLHHRLQAYREYSATGFLLVDARTKTVVEANSAFCQLLGYEESEVLDFTLYQLIAAERPVIEELLINLETQNYLSVPELEYRNREGQTVQVKGEVYRLPWEDREVYCFVMRT”, for which the protein production entry is recorded as “failed”.

For “FQKYQYPIYYGNAIFLADSPKKIDTPLYSPIKIAFEKALKNAKDSVFIASSYFIPGKKMMKIFKNQISKGIELNILTNSLSSTDAIVVYGAWERYRNQLVRMGANVYEIRNDFFNRQIKGRFSTKHSLHGKTIVFDDNLTLLGSFNIDPRSAYINTESAVLFDNPSFAKRVRLSLKDHAQQSWHLVVYRHRVIWEAVEEGILIHEKTSPDTSFFLRLIKEWSKVLPEREL”, the protein production result was “failed”.

Take “MLISLIVPIYNVEGFLPRCLDSIIKQEYQNLEIVLVNDGSTDQSGLICDQYAEKDERFIVFHKENGGVSSARNVGLNKANGNYIGFVDPDDWIEPNMINKLYELIIQHKADIAMCGYVKEDINGLLISRPVELSTKILNKEDTLNSILNPNDFRGFLCNKLFSVDLFRKKNLYLDEDIHFCEDLLFCCQAILESKQIVYDSTPYYHYIIHNNNASKSNFSFKKLTALNSLDNIINLLNDQKGIELEQYKNYYMHLNISLLMNGIHEDKIRRQDKERLKKNLYKFKINDLTSKFVKFSCVLARLNLNLYYFIWKNAKPSNLEHHHHHH”: the protein production entry is “failed”. Regarding “ELPSVEELTIILPEDIELKPLGMVSSIIEQLVIIESMTNLPPVNEETVIFKSDRQAAGKIFEIFGPVAHPFYVLRFNSSDHIESKGIKIKETMYFA”, the protein production entry is “not failed”. The value for “MRINPGEITKVLEEKIKSFEEKIDLEDTGKVIQVGDGIARAYGLNKVMVSELVEFVETGVKGVAFNLEEDNVGIIILGEYKDIKEGHTVRRLKRIIEVPVGEELLGRVVNPLGEPLDGKGPINAKNFRPIEIKAPGVIYRKPVDTPLQTGIKAIDSMIPIGRGQRELIIGDRQTGKTAIAIDTIINQKGQGVYCIYVAIGQKKSAIARIIDKLRQYGAMEYTTVVVASASDPASLQYIAPYAGCAMGEYFAYSGRDALVVYDDLSKHAVAYRQLSLLMRRPPGREAYPGDIFYLHSRLLERAVRLNDKLGGGSLTALPIVETQANDISAYIPTNVISITDGQIYLEPGLFYAGQRPAINVGLSVSRVGGSAQIKAMKQVAGMLRIDLAQYRELETFAQFATELDPATRAQIIRGQRLMELLKQEQYSPMPVEEQVVVLFAGVRGYLDDLPVEEVRRFEKEFLRFMHEKHQDILDDIKTKKELTSETEEKLKKAIEEFKTTFRV” was “not failed”. As for “MDLHSLCVDSHALRRDGMRFLHTADWQLGMTRHFLAGDAQPRYSAARRDAVAGLKALAADVGAEFVVVAGDVFEHNQLAPQIVGQSLEAMRVIGLPVYLLPGNHDPLDASSVYTSTLFRAERPDNVVVLDRAGVHEVRPGVQIVAAPWRSKAPTTDPVAEVLAGLPTDAAIRLLVAHGGVDALDPDHDKPSLIRLAALDDALTRQAIHYVALGDKHSLTQVGSSGRVWYSGAPEVTNFDDVEPDPGHVLVVDIDESDPRHPVTVDARRIGRWRFVTLHHQVDTSRDIADLDLNLDLMTDKDRTVVRLALTGSLTVTDRAALDTCLDKYARLFAWLGLWERHTDLAVIPVDAEFTDLGIGGFAAAAVDELVATARGGDDESAVDAQAALALLLRLADRGAALEHHHHHH”, the protein production result was “failed”. The value for “MSSVKDTMTTQVATVSPNQTIQEAASLMKQHNVGAIPVVEQGVLKGMLTDRDIALRTTAQGRDGQTPVSEVMSTELVSGNPNMSLEDASQLMAQHQIRRLPIVDQNNLVGIVALGDLAVNQMSNESAGSALTNISHQNIH” was “failed”; that for “MSVLQGFEEVNMTAPRGKLSMLVTKDVVRFNKATAIALGYPAYVKVLINDKTKQFAVKPCKQSDANAVKFSKPEGKQTASVNIKDVMVLDSVLKYFKLDEPQDGQVTFQSMQGTFYPEERVAMFSVADAKAGVMKKRGRKKSESEEA” was “failed”; that for “MARIDHVGLMVKDIDASIAFYQNVIGMTLKGRMTHTNGVMKLAFLGFENRDETELELIEGYNDNLPQEGKVHHFAVSTDDIEAEFDRVKGAGIKLMEDEITVLPNGFRYFFLFGPEGEMVEFFQRT” was “failed”. The value for “MDTQTLNSDLRVFMHHIYEFEKGVRSMVLATLANDDIPYAEERLRSRQIPYFAQPTPNTERTNLFFGCKECMEAIRLFVSGRSLNSLTPEEDFIIGAMLGYDICRQCERYCRRKSNS” was “not failed”; that for “MLLLHNARILDLTDGSTGEPTDVLLSDRVLALGPEAQQQAHSARVRSIDLGGRLLMPGLWDEHVHVGQWALASRRFLVSQTASCETALEEVATHVKRREGSDEPILQGFGFRPSLWGSNPNARQLDAVTGDRAVILVSADLHSSWCNTAAMRKLGIEGDGFLREQTSFDVQTQLSQVNPHVLDGWVGSCSTAAARLGITGIRDMEFSTDVETWLQRKADGRCPLRVEVSVYPERLDEAIAQVLATGQAPATDKPGPSRVAMGPLKVIVDGSMSTRTAWCMDSYPAGAGPDGAGIDSVTPEDLVDLMNRAKTGNLQCAAHAIGDRAAKEVLNAFEVTGISGSIEHAQVLTDADVRRFAALGVRASVQPLHLVDDRDATDVMWSDRADRCFRFADMVRAGTELALGSDAPVSPVDPWGAIRVAVERTGDRRPSWHPEQALTLSQAITASTRHVTQVVTGGPGDVIAVAHNPFDLSGNALAGITSDLTVVGGEVTAAAL” was “failed”; that for “MSDRLANQIAAGEVVQRPASVAKELIENALDAGASSIEVLLKDAGSTLVQVIDDGCGMGPGDAERCFERHATSKLRSVDDLERIRTLGFRGEALASIAAVAQVTLKTKRVEDDAGTLVRVEGGEQVEKRPCAIPNGTSVAVRNLFFNVPARRNFLKTPATELKHLTQTVQSLALANPDTAVRLEHDGHEHYDLPAAPDSDWHAATRARILGLFGGDHEDELVAVEDESSDLRLRGFVGAPSFHRKTRGEQFLFVNGRAVTDRYLSHAVKKAYGELVPDGAFPFFALFLAMNPERVDVNVHPQKEEVKFDDQSGIYGFLRSAVRRALGRVHVSPQMDDGDDEADNEEDSPGPESDGTGSGGHAVSGDGTSSPRPTPTSFQPQRSSGDATDSSGRSSSGPSPQSPKPRPENPSVSPGDQSDALYRRPDGGDESSPGDAPASPPHREGGSSSTSAADEAERSGRRPVWGLHDTYVVTPTETGMMLVDQRAAHLRVLYERARAHLRDQQGASQRLLFPHTVDLSPAEVELLDELRDDLDALGFELERLSGRTVSVRGVPADVPDGNEDTILEELLEQYRSAQDAVEDERREHLAKTMAQRSAVDRGQPLSEEERRALLDDLFDCEMPYADPTGTPTIVKLSMEELADRFGR” was “failed”. The value for “MKLASGFLVLWLSLGGGLAQSDTSPDTEESYSDWGLRHLRGSFESVNSYFDSFLELLGGKNGVCQYRCRYGKAPMPRPGYKPQEPNGCGSYFLGLKVPESMDLGIPAMTKCCNQLDVCYDTCGANKYRCDAKFRWCLHSICSDLKRSLGFVSKVEAACDSLVDTVFNTVWTLGCRPFMNSQRAACICAEEEKEEL” was “failed”. Take “IQHATASLIQTNTDQELLVVDVTPSFASLWLVPNINDFHQRHPNIRVKILTGDGAVKNIHGESDLHVRCLPLSTHYEYSQLLCEETLLLIGNTNLPKLSDNQAISHYPFIPQTTRPQLWEQFKQENDLECPITYHSVGFEHFYLACEAVRMEKGLALLPDFMAQFSILRGDIQHIGNLKLHSGYGYYVVIPNFRLTSRKVALFHDWLKDKLTHHT”: the protein production entry was “not failed”. Take “ASLKDFELSKMLEKVAKESSVGTPRAINEDILDQGYTVEGNQLINHLSVRASHAERMRSNPDSVRSQLGDSVCSNTGYRQLLARGAILTYSFTEYKTNQPVATERFDAGSCRIQGKK”: the protein production entry was “not failed”. The value for “MAKAMELWVGEMKKMSEKINTRNPLMQRKNSTSVVSKQQQGSEEERGLINQKIREKNEAVTMSELTVCLLMDRFVPW” was “failed”; that for “MMWIPYNQGFHAGPKCLTVVFIYLLNMKVLRHIYRFLMELYGPQGWWPLLDRDTMTLRYHPGDYTPPSDDGDVFEVITGSILTQNTSWDSAASALRNLAAMDALKPHRILSLDDAELEAAIRCAGFYRQKVSYLREMAGFFISLEGSTPSRKELLKVRGVGPETADSVLLYAYRKPEFVVDAYTRRILTHLGLIAGDESYHRIKELFERSLEPDFRVFQEYHALIVRHGKSYYRGRVHGDGDPLEHHHHHH” was “failed”; that for “MDAAVVGGGPAGSLAAILLGKSYDVALFEEHQSAGFPVQCAGLVSDKCYKKLKEHCKAEKAIENHIKGAFFFSPSGKIVLEGRGEAVVVERKILDRLLFERAAERAKVFVKEKARLNGFRIITPSREVSAEKIIGADGVNSTVREHFGFPTMGFFTAVQVEAKFEPLDENCVELYFGGNWSDSFFAYAIPLGDTARIGVVSRSSPLRYLENLMKRHPSVSGRVEGSAVELNAGAIPDRLVKFSKRDVALIGDAAGMVKPYTGGGLYYHLIAAEKLAESFPDLKGYEKSYLKEMGREYRFGYAVRKLYSLPDEKLEQLFSAMADFDFRGVHMDSPSTLIRKAADISFRLLRKPSLAFYLVKSLFLLEHHHHHH” was “failed”. For “PSVQVPQSTILYASDGSKLGETNYGEKRYWVPLKDMNPTIVKATVAIEDQNFYDHHGFDYKRMAGAALADLKAFAKVQGASTITQQYARNLYLEHDKTWKRKWNEAFYTIRLEQNYSKDEILEGYLNTIYYGHGAYGIEAASRLYFGKHAKNLTDAEAALLAGIPKGPSGY”, the protein production entry is reported as “failed”. On to “MLFIAFAPFGAFALEANSKNDGYSLDDIKYYKIFENEDIPKIMYALRQGDFEIIAELKNEWEIEEEDVSFEYTTSKNPLGELIRDNLYELGQKYEVFEDESDFVSKMNVWATAFTKSMMKKSSEQKDKLIVQTVNALDNLDETLNLFSERLREWYSLYFPEMDNIVKKHDIYVSLVSEYGDREEYTRTKLKKTMPSNVARTISLAAKESMGADVSEFDLKIMKNLADEIKSMYEYRESLQEYLETSMNEIAPNLTKVAGASLGARLISLAGGIERLLRLPASTIQVIGAEKALFAHLRERALPPKHGVIFQHPLIQGSPWWIHGKIARAISCKISIAIRADAFGNDISDMLIEDMNKKVAEIKEKFPEPTRKRRPRPDTRSFGNKGGQDRDRRSQGDRKPSGNRGDSKKGGKPFGKKPAGKDDRRDNRKGDRKPFGGKPKNSGNQPPKERSGEKRRDSTKKVKAERKVIGKTSSQNLEHHHHHH”, for which the protein production result was “not failed”.

For the sequence “MTGVLTADRPPKPAAPRRYTVALARDEDDVRAAQRLRHDVFAGEMGALLASPQPGHDVDAFDAYCDHLLVREETTGQVVGTYRLLPPERAAVAGRLYAESEFDLAALDPIRSSLVEVGRSCVHPDHRDGAVIGLVWAGIARYMTDRGHAWLAGCCSLPLADGGALAAGAWDRVRTKHLAPEEYRVRPLLPWVPRPAAPAARTELPALLRGYLRLGAWVCGEPAHDVDFGVADLYVLLPMNRVDPRYLRHFLSLAPA”, the protein production result is “failed”.
